# Substrate: [O-][Cl+]O
# Assay: oxygen evolution in digitonin-permeabilised HeLa cells, optical oxygen meter, initial rates
# Format: biochemical, Nitrospira defluvii
# Conditions: 20 mM HEPES pH 7.2, 125 mM KCl, 2 mM K2HPO4, 1 mM MgCl2, glutamate, malate, 0.01% digitonin, air-saturated, chlorite 10 μM to 1 mM
protein,measurement,value
"FLAG-NdCld (Nitrospira defluvii) (protein, codon-optimised; N-terminal FLAG kept; expressed in HeLa cells; 29 kDa; runs at 248 kDa (dimer of pentamers)) ADREKLLTESGVYGTFATFQMDHDWWDLPGESRVISVAEVKGLVEQWSGKILVESYLLRGLSDHADLMFRVHARTLSDTQQFLSAFMGTRLGRHLTSGGLLHGVSKKPTYVAGFPESMKTELQVNGESGSRPYAIVIPIKKDAEWWALDQEARTALMQEHTQAALPYLKTVKRKLYHSTGLDDVDFITYFETERLEDFHNLVRALQQVKEFRHNRRFGHPTLLGTMSPLDEILEKFAQ",Km,560 µM

# Source: publication PMC9618058, “A genetically encoded system for oxygen generation in living cells” (Proceedings of the National Academy of Sciences of the …, 2022)
